Measured values as given in patent US11414648B2, “Methods and compositions for production of fallopian tube epithelium” (CEDARS-SINAI MEDICAL CENTER, priority 2017, dated 2022).

Legend:
Assay type in all cases: cell-based
[1] = test system: human iPSCs; experiment: Differentiation of human iPSCs into mesoderm (qPCR/immunocytochemistry of MIXL1, BRACHYURY); conditions: 100 ng/ml activin A and 3 μM CHIR99021 used together; iPSC line 87iCTR-n3; peak at day 2
Method: Human iPSCs were split onto Matrigel-coated plates, and cultured in mTeSR®1 medium until 80% confluent. Three intermediate protocols were compared, according to Mae et al. (2013), Xia et al. (2013), and Takasato et al. (2014). […]
Total cellular RNA was isolated using Qiagen RNeasy Mini kit according to the manufacturer's recommendations (Qiagen). Of RNeasy-treated total RNA (1 μg) was used for cDNA synthesis using the Quantitect Reverse Transcription Kit for cDNA synthesis for PCR (Qiagen). […]

[2] = test system: human iPSCs; experiment: Differentiation of mesoderm into intermediate mesoderm (IM) (marker expression); conditions: for transient upregulation of BRACHYURY and MIXL1 seen during gastrulation: BMP4 vs BMP7 treatment, 87iCTR-n3 iPSC line
Method: (§1) Human iPSCs were split onto Matrigel-coated plates, and cultured in mTeSR®1 medium until 80% confluent. Three intermediate protocols were compared, according to Mae et al. (2013), Xia et al. (2013), and Takasato et al. (2014). The final protocol that achieved best efficiency and results for creating fallopian tube epithelium was a modified Mae et. al., (2013) protocol, as defined below. • Day 0-2: Cells were exposed to 100 ng/ml human recombinant activin A (Stemgent) and 3 μM CHIR99021 (Cayman Chemicals) to differentiate towards mesoderm, and cultured in DMEM/F12 (Gibco)+Glutamax (Invitrogen) supplemented with 500 U/ml penicillin streptomycin (Gibco) and 2% fetal bovine serum (FBS) with addition of 10 μM ROCK inhibitor Y-27632 (Stemgent). • Day 2-4: To differentiate towards IM, media was changed to DMEM/F12 (Gibco)+Glutamax (Invitrogen) supplemented with 0.1 mM non-essential amino acids (Invitrogen), 500 u/ml penicillin/streptomycin (Gibco), 0.55 mM 2-mercaptoethanol, 10% KOSR (Invitrogen), 100 ng/ml BMP4 (R&D Systems), 3 μM CHIR99021 (Cayman Chemicals), and 10 μM ROCK inhibitor Y-27632 (Stemgent). • Day 4-6: Spheroids were collected from wells and re-plated per methods described below. To differentiate the spheroid cultures towards Müllerian epithelium, media was changed to Fallopian tube media (FTM) containing DMEM/F12 (Gibco)+500 u/ml penicillin/streptomycin (Gibco), and 10 ml reconstituted Ultroser G (15950-017, Pall) and 10 μM ROCK inhibitor Y-27632 (Stemgent). To the FTM, 100 ng/ml human recombinant WNT4 (R&D Systems) with or without 3 μM CHIR99021(Cayman Chemicals), 100 ng/ml human recombinant WNT3A (R&D Systems) with or without 3 μM CHIR99021 (Cayman Chemicals) were added. • Day 6-8: FTM was changed and 20 ng/ml human recombinant Follistatin (Peprotech), 1 ng/ml estrogen and 33 ng/ml progestrone were added.
(§2) Total cellular RNA was isolated using Qiagen RNeasy Mini kit according to the manufacturer's recommendations (Qiagen). Of RNeasy-treated total RNA (1 μg) was used for cDNA synthesis using the Quantitect Reverse Transcription Kit for cDNA synthesis for PCR (Qiagen). Real-time PCR was performed using the SYBR Green Supermix (BioRad). The levels of expression of respective genes were normalized to corresponding GAPDH values and are shown as fold change relative to the value of the control sample. All sample analyses were carried out in triplicate.
(§3) Monolayer cultures were grown on poly-1-lysine and ornithine coated glass coverslips. Cells were washed once with phosphate buffered saline (PBS) and fixed with 4% paraformaldehyde (PFA) in 1× PBS for 20 minutes and permeabilized in PBS containing 0.5% Triton X-100 (PBS-T) (Sigma) for 5 minutes at room temperature. […]

[3] = test system: intermediate mesoderm (IM) cells derived from human iPSCs; experiment: Differentiation of intermediate mesoderm into Müllerian duct / FTE precursor vs nephric duct (marker expression); conditions: for expression of kidney markers SIX2 and FOXD1: qPCR, relative to iPSC day 0, 87iCTR-n3
Method: as §1, §2, §3

Molecule | mesoderm induction (MIXL1 and BRACHYURY) [1] | transient upregulation of BRACHYURY and MIXL1 seen during gastrulation [2] | expression of kidney markers SIX2 and FOXD1 [3] | further results
Cc1c[nH]c(-c2cnc(NCCNc3ccc(C#N)cn3)nc2-c2ccc(Cl)cc2Cl)n1 [CHIR99021, reference compound] | rapidly and efficiently specified human iPSCs (line 87iCTR-n3) into mesoderm |  |  | 
activin A: human recombinant activin A (Stemgent), growth factor (protein, UniProt P08476 311-426, looked up, Inhibin beta A chain activin A homodimer) Inhibin beta A chain: GLECDGKVNICCKKQFFVSFKDIGWNDWIIAPSGYHANYCEGECPSHIAGTSGSSLSFHSTVINHYRMRGHSPFANLKSCCVPTKLRPMSMLYYDDGQNIIKKDIQNMIVEECGCS | rapidly and efficiently specified human iPSCs (line 87iCTR-n3) into mesoderm |  |  | 
BMP4: BMP4 growth factor (R&D Systems) (protein, UniProt P12644 293-408, looked up) Bone morphogenetic protein 4: SPKHHSQRARKKNKNCRRHSLYVDFSDVGWNDWIVAPPGYQAFYCHGDCPFPLADHLNSTNHAIVQTLVNSVNSSIPKACCVPTELSAISMLYLDEYDKVVLKNYQEMVVEGCGCR |  | expected transient upregulation |  | mesoderm differentiation into IM, based on expression of early IM markers PAX2, OSR1 and GATA3 ([2]; 100 ng/ml, day 2-4, compared with BMP7 of Mae et al protocol): optimal mesoderm differentiation into IM; expression of endoderm-marker SOX17 and ectoderm-marker NCAM ([2]; differentiation protocol that included BMP4, 87iCTR-n3): no to very low detectable expression levels
BMP7: Bone Morphogenetic Protein used in the Mae et al (2013) protocol (protein, UniProt P18075 293-431, looked up) Bone morphogenetic protein 7: STGSKQRSQNRSKTPKNQEALRMANVAENSSSDQRQACKKHELYVSFRDLGWQDWIIAPEGYAAYYCEGECAFPLNSYMNATNHAIVQTLVHFINPETVPKPCCAPTQLNAISVLYFDDSSNVILKKYRNMVVRACGCH |  | not recapitulated |  | 
WNT4: human recombinant WNT4 (R&D Systems) (protein, UniProt P56705 23-351, looked up) Protein Wnt-4: SNWLYLAKLSSVGSISEEETCEKLKGLIQRQVQMCKRNLEVMDSVRRGAQLAIEECQYQFRNRRWNCSTLDSLPVFGKVVTQGTREAAFVYAISSAGVAFAVTRACSSGELEKCGCDRTVHGVSPQGFQWSGCSDNIAYGVAFSQSFVDVRERSKGASSSRALMNLHNNEAGRKAILTHMRVECKCHGVSGSCEVKTCWRAVPPFRQVGHALKEKFDGATEVEPRRVGSSRALVPRNAQFKPHTDEDLVYLEPSPDFCEQDMRSGVLGTRGRTCNKTSKAIDGCELLCCGRGFHTAQVELAERCSCKFHWCCFVKCRQCQRLVELHTCR |  |  | lack of expression | expression of fallopian tube precursor (Müllerian duct) markers WT1 and OVGP1 ([3]; qPCR and immunocytochemistry, 100 ng/ml WNT4 on day 4 followed by 20 ng/ml Follistatin on day 6, WNT4/CHIR compared to WNT4 alone): upregulated expression over time
WNT3A: human recombinant WNT3A (R&D Systems) (protein, UniProt P56704 19-352, looked up) Protein Wnt-3a: SYPIWWSLAVGPQYSSLGSQPILCASIPGLVPKQLRFCRNYVEIMPSVAEGIKIGIQECQHQFRGRRWNCTTVHDSLAIFGPVLDKATRESAFVHAIASAGVAFAVTRSCAEGTAAICGCSSRHQGSPGKGWKWGGCSEDIEFGGMVSREFADARENRPDARSAMNRHNNEAGRQAIASHMHLKCKCHGLSGSCEVKTCWWSQPDFRAIGDFLKDKYDSASEMVVEKHRESRGWVETLRPRYTYFKVPTERDLVYYEASPNFCEPNPETGSFGTRDRTCNVSSHGIDGCDLLCCGRGHNARAERRREKCRCVFHWCCYVSCQECTRVYDVHTCK |  |  | increased expression | decreased levels of WT1 and OVGP1 compared to WNT4 treatment ([3]; WNT3A treatment (nephric duct differentiation) vs WNT4): ~10 fold
